Measurements as given in paper PMC9160021, “Artificial intelligence-assisted cryoEM structure of Bfr2-Lcp5 complex observed in the yeast small subunit processome” (Communications Biology, 2022).

T1: Enp2 (S. cerevisiae (endogenous in yeast …, UniProt P48234 1-707))
T1 construct: Enp2, S. cerevisiae, endogenous in the Δpih1-90S; its β-propeller is named as the part that Bfr2 touches; Endogenous protein of the 90S particle
T1 sequence (looked up): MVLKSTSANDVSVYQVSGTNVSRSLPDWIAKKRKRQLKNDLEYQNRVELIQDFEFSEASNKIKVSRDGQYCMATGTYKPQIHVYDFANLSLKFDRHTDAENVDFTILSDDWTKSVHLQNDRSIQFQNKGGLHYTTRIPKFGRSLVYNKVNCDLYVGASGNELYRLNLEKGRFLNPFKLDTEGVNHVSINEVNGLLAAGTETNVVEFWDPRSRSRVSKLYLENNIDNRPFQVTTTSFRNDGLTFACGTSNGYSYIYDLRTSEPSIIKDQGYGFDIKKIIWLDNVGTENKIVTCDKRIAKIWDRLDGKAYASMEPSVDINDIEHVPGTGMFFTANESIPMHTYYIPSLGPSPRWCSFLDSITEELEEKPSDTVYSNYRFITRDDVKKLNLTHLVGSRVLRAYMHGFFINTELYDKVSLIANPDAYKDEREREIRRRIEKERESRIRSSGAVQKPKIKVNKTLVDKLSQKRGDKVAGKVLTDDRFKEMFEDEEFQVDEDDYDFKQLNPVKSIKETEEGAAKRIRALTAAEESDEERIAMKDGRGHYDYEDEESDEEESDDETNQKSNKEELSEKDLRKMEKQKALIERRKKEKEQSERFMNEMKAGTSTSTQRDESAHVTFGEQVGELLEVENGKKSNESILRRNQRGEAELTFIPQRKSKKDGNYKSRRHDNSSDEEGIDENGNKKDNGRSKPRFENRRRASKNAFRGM

T2: MBP-Bfr2(266–432) (S. cerevisiae (genomic DNA of BY4741 …, UniProt Q06631 266-432))
T2 construct: source: E. coli Rosetta(DE3); in lysate (pull-down in cell) and purified (amylose, monoQ, gel filtration)
T2 sequence (looked up): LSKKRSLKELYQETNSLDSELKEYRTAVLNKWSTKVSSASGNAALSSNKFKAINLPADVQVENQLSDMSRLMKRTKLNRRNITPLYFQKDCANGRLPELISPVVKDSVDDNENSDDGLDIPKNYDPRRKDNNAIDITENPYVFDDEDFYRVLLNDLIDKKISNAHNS

B1: Lcp5 (natural protein, UniProt P40079 1-357, looked up)
chain: MSELNALLKDINGSLTATSESLERLSGIYSNSATDEIPESNQLHEHLFYDAKKPAEKVSLLSLKNGSMLGYINSLLMLIGNRLDDECKDPSAMDARERSIQHRVVLERGVKPLEKKLAYQLDKLTRAYVKMEKEYKDAEKRALEKSTLVNHSGNDDSEDDESSEDEIAYRPNTSGIINTNKKSSAYRVEETAKQENGEENDDNETGVYKPPKITAVLPPQQTHFEDRFDAREHKDRSNKSRMQAMEEYIRESSDQPDWSASIGADIVNHGRGGIKSLRDTEKERRVTSFEEDNFTRLNITNKAEKRKQKQRERNARMNVIGGEDFGIFSSKRKLEDSTSRRGAKKTRSAWDRAQRRL
notes: Lcp5, S. cerevisiae, endogenous in the Δpih1-90S; the newly modelled N-terminal domain holds residues 1–141; Endogenous protein of the 90S particle; only part of it is modelled in the map
B2: Bfr2 (natural protein, UniProt Q06631 1-534, looked up)
chain: MEKSLADQISDIAIKPVNKDFDIEDEENASLFQHNEKNGESDLSDYGNSNTEETKKAHYLEVEKSKLRAEKGLELNDPKYTGVKGSRQALYEEVSENEDEEEEEEEEEEKEEDALSFRTDSEDEEVEIDEEESDADGGETEEAQQKRHALSKLIQQETKQAINKLSQSVQRDASKGYSILQQTKLFDNIIDLRIKLQKAVIAANKLPLTTESWEEAKMDDSEETKRLLKENEKLFNNLFNRLINFRIKFQLGDHITQNEEVAKHKLSKKRSLKELYQETNSLDSELKEYRTAVLNKWSTKVSSASGNAALSSNKFKAINLPADVQVENQLSDMSRLMKRTKLNRRNITPLYFQKDCANGRLPELISPVVKDSVDDNENSDDGLDIPKNYDPRRKDNNAIDITENPYVFDDEDFYRVLLNDLIDKKISNAHNSESAAITITSTNARSNNKLKKNIDTKASKGRKLNYSVQDPIANYEAPITSGYKWSDDQIDEFFAGLLGQRVNFNENEDEEQHARIENDEELEAVKNDDIQIFG
notes: Bfr2, S. cerevisiae, endogenous in the Δpih1-90S; the whole protein is 1–534; Endogenous protein of the 90S particle; only part of it is modelled in the map
B3: His-Lcp5(1–160) (domain or fragment, S. cerevisiae, UniProt P40079 1-160, looked up)
chain: MSELNALLKDINGSLTATSESLERLSGIYSNSATDEIPESNQLHEHLFYDAKKPAEKVSLLSLKNGSMLGYINSLLMLIGNRLDDECKDPSAMDARERSIQHRVVLERGVKPLEKKLAYQLDKLTRAYVKMEKEYKDAEKRALEKSTLVNHSGNDDSEDD
notes: Lcp5, S. cerevisiae, residues 1–160, polyhistidine tagged; The methods describe only the cloning of the untagged Lcp5(1–160); also called polyhistidine tagged Lcp5 fragment 1–160; source: bacteria expression host, purified

Key:
Conditions in all cases: both partners purified
Bfr2 = target: B2; test: cryo-EM structure; Δpih1-90S purified from yeast by tandem affinity (Pwp2-TAP on IgG Sepharose, Kre33-TwinStrep on Strep-Tactin); 3.99 Å overall, 5.04 Å for the head (5' domain) where Bfr2-Lcp5 lies; Bfr2-Lcp5 model placed with the aid of AlphaFold
Enp2 = target: T1, Enp2; test: as above
MBP-Bfr2(266–432) = target: T2, MBP-Bfr2(266–432); test: pull-down; in vitro: purified MBP, MBP-Bfr2(360–432) or MBP-Bfr2(266–432) as bait with purified His-Lcp5(1–160)

B1
binding result (Bfr2): binds

B2
binding result (Enp2): binds

B3
binding result (MBP-Bfr2(266–432)): binds
